From publication PMC3376577, “A Reusable Impedimetric Aptasensor for Detection of Thrombin Employing a Graphite-Epoxy Composite Electrode” come the findings set out here.

One series concerns the target serum albumin (UniProt P02768 25-609). Kind of series: electrochemical impedance spectroscopy; albumin 5,000 mg/dL; Rct did not increase (slight decrease); PBS (187 mM NaCl, 2.7 mM KCl, 8.1 mM Na2HPO4, 1.76 mM KH2PO4, pH 7.0), room temperature; aptamer 1 uM adsorbed on graphite-epoxy electrode, PEG blocking. The following applies: G-quadruplex (quadriplex).
The target of another series is thrombin (UniProt P00734;P00734 328-363;364-622). The series can be described thus: electrochemical impedance spectroscopy; linear response 7.5-75 pM, detection limit 4.5 pM; PEG-blocked electrode, [Fe(CN)6]3-/4- probe; complex broken by 2.0 M NaCl at 42 C; PBS (187 mM NaCl, 2.7 mM KCl, 8.1 mM Na2HPO4, 1.76 mM KH2PO4, pH 7.0), room temperature; aptamer 1 uM adsorbed on graphite-epoxy electrode, PEG blocking.

Sequence of serum albumin (P02768 25-609): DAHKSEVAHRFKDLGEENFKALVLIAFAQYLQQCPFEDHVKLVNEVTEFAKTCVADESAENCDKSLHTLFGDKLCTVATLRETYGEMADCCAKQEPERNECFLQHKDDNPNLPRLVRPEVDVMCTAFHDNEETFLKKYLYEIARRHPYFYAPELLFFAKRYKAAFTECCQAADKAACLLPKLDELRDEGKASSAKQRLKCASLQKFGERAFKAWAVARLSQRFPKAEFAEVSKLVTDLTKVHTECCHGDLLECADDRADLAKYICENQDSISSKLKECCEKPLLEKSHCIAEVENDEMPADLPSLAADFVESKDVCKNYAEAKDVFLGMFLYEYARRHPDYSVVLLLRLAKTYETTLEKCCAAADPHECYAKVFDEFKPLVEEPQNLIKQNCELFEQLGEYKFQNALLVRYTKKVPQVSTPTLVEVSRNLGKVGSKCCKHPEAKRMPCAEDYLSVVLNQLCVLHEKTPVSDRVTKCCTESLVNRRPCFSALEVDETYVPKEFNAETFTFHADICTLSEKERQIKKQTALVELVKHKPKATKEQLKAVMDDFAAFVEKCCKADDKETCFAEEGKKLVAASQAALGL

As for GGTTGGTGTGGTTGG (structured_DNA) [AptThr], the binding result is “no binding” in the series with serum albumin and “binds” in the series with thrombin.
